Measurements: paper PMC3991884, “Trehalose synthesis in Aspergillus niger: characterization of six homologous genes, all with conserved orthologs in related species” (BMC Microbiology, 2014)

B1: TpsB (natural protein, Aspergillus niger, UniProt Q00217 1-480, looked up)
chain: MAANGSSSEGDHRLLIVSNRLPITIRRSGGGKYEFSMSSGGLVTGLSGLSKTTTFQWYGWPGLEVPEDEIDSVKQRLQEEFNATPVFMDDKLADRHYNGFSNSILWPLLHYHPGEIVFDEAAWDAYREANRLFAKTIAHEAREGDLVWVHDYHLMLLPEVLREELAALGKNNIRIGFFLHTPFPSSEIYRILPVRSQLLRGVLQCDLIGFHTYDYARHFLSCCSHILGLVTTPSSVKFKDRSVAVGAFPIGIDPDKFTEGLKSPKVQNRIASLENKFQGTKLMVSVDRLDYIKGIPQKLHALEVFLSQHPEWVGKVVLVQVAVPSRQDVEEYQNLRAVVNELVGRINGKFGTVDYMPIHFMHKSVSFDELIALYAASDACVVSSTRDGMNLVSFEYVATQQKRKGVLILSEFAGAAQSLNGSIVVNPWNTEELASAYHEAVSMSDDLRAQKFEKLYKYISKYTSAFWGKSFVAELSKCST
notes: TpsB, putative trehalose-6-phosphate synthase of Aspergillus niger (Tps1 ortholog), gene tpsB, ANI_1_1078064; full-length cDNA / open reading frame; Cloned into both vectors; each fusion carries one of the two fragments (T25 or T18), not both; also called tpsB gene product; trehalose-6-phosphate synthase TpsB; source: bacterial two-hybrid fusion (pKT25 and pUT18C), in E. coli BTH101
B2: TpsA (natural protein, Aspergillus niger, UniProt Q00075 1-517, looked up)
chain: MPSLENPTFQNEARLLLVSNRLPITIKRSDDGRYDFSMSSGGLVSGLSGLSKSTTFQWYGWPGLEVPEEEIPVVKERLKQEYNAVPVFIDDELADRHYNGFSNSILWPLFHYHPGEITFDESAWEAYKEANRLFAKAVAKEVQDGDLIWVHDYHLMLLPEMLREEIGDSKENVKIGFFLHTPFPSSEIYRILPVRNELLLGVLHCDLIGFHTYDYTRHFLSACSRLLGLTTTPNGIEFQGKIIACGAFPIGIDPEKFEEGLKKEKVQKRIAMLEQKFQGVKLMVGVDRLDYIKGVPQKLHALEVFLSDHPEWVGKVVLVQVAVPSRQDVEEYQNLRAVVNELVGRINGKFGTVEFMPIHFLHKSVNFDELIALYAVSDACIVSSTRDGMNLVAYEYIATQKKRHGVLVLSEFAGAAQSLNGSIIINPWNTEELAGAYQEAVTMSDEQRALNFSKLDKYVNKYTSAFWGQSFVTELTRISEHSAEKFHAKKASFSDNNSENGEPSNGVETPAQEQVAQ
notes: TpsA, putative trehalose-6-phosphate synthase of Aspergillus niger (Tps1 ortholog), gene tpsA, ANI_1_1406074; full-length cDNA / open reading frame; Cloned into both vectors; each fusion carries one of the two fragments (T25 or T18), not both. cDNA from A. niger N402 background; also called tpsA gene product; trehalose-6-phosphate synthase TpsA; source: bacterial two-hybrid fusion (pKT25 and …)

Assays:
Assay in all cases: two-hybrid; bacterial adenylate cyclase two-hybrid (BACTH System Kit); pKT25 and pUT18C fusions co-transformed into E. coli BTH101; LB with ampicillin, kanamycin and 0.5 mM IPTG, 100 rpm, 20°C, 72 h; β-galactosidase assay as units/mg dry weight; three to four independent assays
[1] = target: TpsC (Aspergillus niger)
[2] = target: B1
[3] = target: TppA (Aspergillus niger)
[4] = target: B2; conditions: partners not purified
[5] = target: the molecule itself

TpsC (natural protein)
β-galactosidase activity (two-hybrid) (units/mg dry weight bacteria) [1]: 1210 | β-galactosidase activity (two-hybrid) (units/mg dry weight bacteria) [2]: 688

TppA (natural protein)
β-galactosidase activity (two-hybrid) (units/mg dry weight bacteria) [2]: 691

B1
β-galactosidase activity (two-hybrid) (units/mg dry weight bacteria) [1]: 441 | β-galactosidase activity (two-hybrid) (units/mg dry weight bacteria) [3]: 581 | β-galactosidase activity (two-hybrid) [4]: 1590 units/mg dry weight bacteria | β-galactosidase activity (two-hybrid) [5]: 1780 units/mg dry weight bacteria

B2
β-galactosidase activity (two-hybrid) ([2]; partners not purified): 1750 units/mg dry weight bacteria | β-galactosidase activity (two-hybrid) [5]: 418 units/mg dry weight bacteria
